Assay results reported in paper PMC7195389, “Inter-domain dynamics in the chaperone SurA and multi-site binding to its outer membrane protein clients” (Nature Communications, 2020).

Legend:
Settings in all cases: both partners purified
[1] = target: T1, SurA (E. coli periplasmic chaperone, wild type, mature sequence) (E. coli, UniProt P0ABZ6 21-428); test: MST; 50 nM Alexa Fluor 488-labelled Cys-OmpX, SurA titrated 100 µM-3 nM, 0.24 M urea, 50 mM Tris-HCl pH 8.0; fitted to the Hill equation; apparent
T1 construct: numbering is the gene numbering with the signal peptide; also called SurA WT; apo-SurA; source: E. coli BL21(DE3), purified (HisTrap, denatured on-column with 6 M Gdn-HCl, TEV cleavage, second HisTrap); not shown: His6, N-terminal, cleaved
T1 sequence (looked up): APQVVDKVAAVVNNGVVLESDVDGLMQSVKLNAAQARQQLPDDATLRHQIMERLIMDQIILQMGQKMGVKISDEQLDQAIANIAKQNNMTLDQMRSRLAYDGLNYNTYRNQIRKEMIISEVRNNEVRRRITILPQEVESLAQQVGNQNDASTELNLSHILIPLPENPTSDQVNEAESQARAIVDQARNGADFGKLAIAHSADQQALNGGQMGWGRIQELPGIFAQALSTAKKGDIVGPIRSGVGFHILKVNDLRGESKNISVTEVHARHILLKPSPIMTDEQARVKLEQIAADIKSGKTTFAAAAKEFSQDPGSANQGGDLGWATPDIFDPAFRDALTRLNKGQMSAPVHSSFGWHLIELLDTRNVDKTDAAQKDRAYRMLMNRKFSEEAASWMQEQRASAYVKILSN

[2] = target: T1, SurA (E. coli periplasmic chaperone, …); test: cross-linking; tag-transfer photo-cross-linking: 10 µM SurA, 5 µM MTS-diazirine-labelled OmpX Cys variant, 0.24 M urea, 10 mM potassium phosphate pH 8.0, UV LED 30 s; SDS-PAGE, LC-MS/MS
[3] = target: T1, SurA (E. coli periplasmic chaperone, …); test: HDX-MS; differential HDX of 8 µM SurA without and with 8 µM OmpX or OmpF, 10 mM potassium phosphate pH 8.0, 0.24 M urea, 4 °C, 0.5-120 min
[4] = target: T2, SurA Q85C-N193C labelled with Alexa Fluor 488 and Alexa Fluor 594 (E. coli, UniProt P0ABZ6 21-428, Q85C | N193C, Alexa Fluor 488 C5 maleimide and Alexa Fluor 594 C5 maleimide, stochastically, on Cys 85 and Cys 193); test: FRET or BRET; intramolecular smFRET (ALEX) of ~50 pM doubly labelled SurA variant with 1.5 µM OmpX or OmpF, 50 mM Tris-HCl pH 8.0, 0.24 M urea, 25 °C; change of the inter-domain E_FRET distribution against apo-SurA
T2 construct: gene numbering with the signal peptide; also called core-P1 SurA variant; SurA core-P1; source: E. coli BL21(DE3), purified as wild type with 10 mM DTT; labelled with Alexa Fluor maleimides, SEC; not shown: His6, N-terminal, cleaved
T2 sequence (looked up): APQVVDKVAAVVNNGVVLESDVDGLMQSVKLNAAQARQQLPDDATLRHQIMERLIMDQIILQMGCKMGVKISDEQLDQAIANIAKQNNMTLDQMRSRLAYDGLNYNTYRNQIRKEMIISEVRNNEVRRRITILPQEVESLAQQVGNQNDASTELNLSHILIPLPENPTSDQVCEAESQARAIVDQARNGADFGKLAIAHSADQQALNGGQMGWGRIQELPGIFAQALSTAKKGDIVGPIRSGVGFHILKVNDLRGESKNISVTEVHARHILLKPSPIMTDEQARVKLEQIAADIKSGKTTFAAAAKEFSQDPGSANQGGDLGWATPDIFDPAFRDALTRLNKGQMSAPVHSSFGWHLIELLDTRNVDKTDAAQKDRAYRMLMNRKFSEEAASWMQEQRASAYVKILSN

[5] = target: T1, SurA (E. coli periplasmic chaperone, …); test: cross-linking; DSBU, 5 µM SurA, 5 µM OmpX, 0.24 M urea, 10 mM potassium phosphate pH 8.0, 45 min, room temperature; SDS-PAGE band, in-gel digestion, LC-MS/MS
[6] = target: T3, SurA Q85C-E301C labelled with Alexa Fluor 488 and Alexa Fluor 594 (E. coli, UniProt P0ABZ6 21-428, Q85C | E301C, Alexa Fluor 488 C5 maleimide and Alexa Fluor 594 C5 maleimide, stochastically, on Cys 85 and Cys 301); test: FRET or BRET; intramolecular smFRET (ALEX) of ~50 pM doubly labelled SurA variant with 1.5 µM WEYIPNV, 50 mM Tris-HCl pH 8.0, 25 °C; change of the inter-domain E_FRET distribution against apo-SurA
T3 construct: gene numbering with the signal peptide; also called core-P2 SurA variant; SurA core-P2; source: E. coli BL21(DE3), purified as wild type with 10 mM DTT; labelled with Alexa Fluor maleimides, SEC; not shown: His6, N-terminal, cleaved
T3 sequence (looked up): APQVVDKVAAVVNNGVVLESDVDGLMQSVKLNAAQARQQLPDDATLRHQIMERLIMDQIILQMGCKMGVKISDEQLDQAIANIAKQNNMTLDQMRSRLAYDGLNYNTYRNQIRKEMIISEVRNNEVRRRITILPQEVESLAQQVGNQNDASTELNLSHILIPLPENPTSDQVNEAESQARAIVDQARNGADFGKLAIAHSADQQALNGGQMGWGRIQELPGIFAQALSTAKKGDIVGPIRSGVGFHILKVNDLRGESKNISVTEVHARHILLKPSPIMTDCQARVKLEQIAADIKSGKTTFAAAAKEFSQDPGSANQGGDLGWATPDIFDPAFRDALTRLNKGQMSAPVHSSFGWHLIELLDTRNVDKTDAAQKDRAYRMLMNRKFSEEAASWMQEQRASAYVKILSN

[7] = target: T2, SurA Q85C-N193C labelled with Alexa …; test: as above
[8] = target: T1, SurA (E. coli periplasmic chaperone, …); test: HDX-MS; differential HDX of 8 µM SurA without and with 110 µM WEYIPNV, 10 mM potassium phosphate pH 8.0, 4 °C, 0.5-120 min

B1: Cys-OmpX labelled with Alexa Fluor 488 (natural protein, E. coli)
chain: MGSCATSTVTGGYAQSDAQGQMNKMGGFNLKYRYEEDNSPLGVIGSFTYTEKSRTASSGDYNKNQYYGITAGPAYRINDWASIYGVVGVGYGKFQTTEYPTYKHDTSDYGFSYGAGLQFNPMENVALDFSYEQSRIRSVDVGTWIAGVGYRF
modifications: Alexa Fluor 488 C5 maleimide on the added Cys
notes: N-terminal Met followed by the added residues Gly-Ser-Cys (named in words); also called labelled Cys-OmpX; source: E. coli BL21[DE3], inclusion bodies, purified; labelled with Alexa Fluor 488 C5 maleimide
- Kd [1]: ~800 nM

B2: OmpX I102C labelled with MTS-diazirine (natural protein, E. coli)
chain: MATSTVTGGYAQSDAQGQMNKMGGFNLKYRYEEDNSPLGVIGSFTYTEKSRTASSGDYNKNQYYGITAGPAYRINDWASCYGVVGVGYGKFQTTEYPTYKHDTSDYGFSYGAGLQFNPMENVALDFSYEQSRIRSVDVGTWIAGVGYRF
modifications: MTS-diazirine on Cys 102
notes: N-terminal Met residue of the OmpX construct (named in words); source: purified, conjugated with MTS-diazirine in 6 M guanidine-HCl
- binding result [2]: binds

B3: OmpX K122C labelled with MTS-diazirine (natural protein, E. coli)
chain: MATSTVTGGYAQSDAQGQMNKMGGFNLKYRYEEDNSPLGVIGSFTYTEKSRTASSGDYNKNQYYGITAGPAYRINDWASIYGVVGVGYGKFQTTEYPTYCHDTSDYGFSYGAGLQFNPMENVALDFSYEQSRIRSVDVGTWIAGVGYRF
modifications: MTS-diazirine on Cys 122
notes: as for B2
- binding result [2]: binds

B4: OmpF (E. coli outer membrane protein F, mature sequence, unfolded) (natural protein, UniProt P02931 23-362, looked up)
chain: AEIYNKDGNKVDLYGKAVGLHYFSKGNGENSYGGNGDMTYARLGFKGETQINSDLTGYGQWEYNFQGNNSEGADAQTGNKTRLAFAGLKYADVGSFDYGRNYGVVYDALGYTDMLPEFGGDTAYSDDFFVGRVGGVATYRNSNFFGLVDGLNFAVQYLGKNERDTARRSNGDGVGGSISYEYEGFGIVGAYGAADRTNLQEAQPLGNGKKAEQWATGLKYDANNIYLAANYGETRNATPITNKFTNTSGFANKTQDVLLVAQYQFDFGLRPSIAYTKSKAKDVEGIGDVDLVNYFEVGATYYFNKNMSTYVDYIINQIDSDNKLGVGSDDTVAVGIVYQF
notes: source: E. coli BL21[DE3], inclusion bodies, purified (gel filtration in 6 M Gdn-HCl); urea-denatured and diluted into the assay
- binding result [3]: binds
- binding result [4]: binds

B5: OmpX (E. coli outer membrane protein X, mature sequence, unfolded) (natural protein)
chain: MATSTVTGGYAQSDAQGQMNKMGGFNLKYRYEEDNSPLGVIGSFTYTEKSRTASSGDYNKNQYYGITAGPAYRINDWASIYGVVGVGYGKFQTTEYPTYKHDTSDYGFSYGAGLQFNPMENVALDFSYEQSRIRSVDVGTWIAGVGYRF
notes: N-terminal Met residue of the construct (named in words); Unfolded client in 0.24 M urea; source: E. coli BL21[DE3], inclusion bodies, purified (gel filtration in 6 M Gdn-HCl); urea-denatured and diluted into the assay
- binding result [5]: binds
- binding result [4]: binds

B6: OmpX M41C labelled with MTS-diazirine (natural protein, E. coli)
chain: MATSTVTGGYAQSDAQGQCNKMGGFNLKYRYEEDNSPLGVIGSFTYTEKSRTASSGDYNKNQYYGITAGPAYRINDWASIYGVVGVGYGKFQTTEYPTYKHDTSDYGFSYGAGLQFNPMENVALDFSYEQSRIRSVDVGTWIAGVGYRF
modifications: MTS-diazirine on Cys 41
notes: as for B2
- binding result [2]: binds

B7: OmpX V167C labelled with MTS-diazirine (natural protein, E. coli)
chain: MATSTVTGGYAQSDAQGQMNKMGGFNLKYRYEEDNSPLGVIGSFTYTEKSRTASSGDYNKNQYYGITAGPAYRINDWASIYGVVGVGYGKFQTTEYPTYKHDTSDYGFSYGAGLQFNPMENVALDFSYEQSRIRSVDVGTWIAGCGYRF
modifications: MTS-diazirine on Cys 167
notes: as for B2
- binding result [2]: binds

B8: WEYIPNV peptide (peptide)
peptide: WEYIPNV
- binding result [6]: binds
- binding result [7]: binds
- binding result [8]: binds
